From patent US20190233512A1 (SUTRO BIOPHARMA, published 2019)

Columns and labels:
[1] = biological target: T1, Cynomolgus folate receptor alpha (cynomolgus monkey, UniProt P15328 25-234 (human entry)); test: FACS, CHO-cFOLR1 cells
T1 construct: Stably expressed on CHO cells (CHO-cFOLR1); also called cynomolgus FOLR1; CHO-cFOLR1

[2] = biological target: T2, Human folate receptor alpha (hFOLR1) (human, UniProt P15328 25-234); test: FACS, CHO-hFOLR1 cells
T2 construct: Stably expressed on CHO cells (CHO-hFOLR1) for flow cytometry; endogenous on FOLR1-positive KB and Igrov1 cells in the killing assay; also called human FOLR1; FolRα
T2 sequence (P15328 25-234 limits assumed): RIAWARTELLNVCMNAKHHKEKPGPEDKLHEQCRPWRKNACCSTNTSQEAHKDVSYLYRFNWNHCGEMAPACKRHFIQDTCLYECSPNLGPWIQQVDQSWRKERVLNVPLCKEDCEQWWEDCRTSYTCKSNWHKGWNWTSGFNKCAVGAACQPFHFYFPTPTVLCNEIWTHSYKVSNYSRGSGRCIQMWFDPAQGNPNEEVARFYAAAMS
Protocol: CHO cells were transfected to stably express human (CHO-hFOLR1), cynomolgus (CHO-cFOLR1), or mouse (CHO-mFOLR1) target molecule FOLR1 on the cell surface. Parental CHO cells were used as a negative control to determine background binding levels. Parental CHO and stably transfected CHO-hFOLR1, CHO-cFOLR1, and CHO-mFOLR1 cells were cultured in Ham's F-12: high glucose DMEM (50:50) (Corning, Cellgro-Mediatech) supplemented with 10% heat-inactivated fetal bovine serum (Corning, Cellgro-Mediatech), 1% Penicillin/Streptomycin (Corning, Cellgro-Mediatech) and 2 mmol/L-glutamax (Life Technology).
A mixture of fluoresecent-labeled parental CHO cells and unlabeled CHO-hFOLRlcells were prepared as follows. Parental CHO cells were washed twice in PBS and incubated in PBS containing with 1 nM CellTrace™ Oregon Green488® (Life Technologies) at 37° C. for 30 minutes. Labeled parental CHO cells were then washed 2× with Ham's F-12 media and 2× with FACS buffer (PBS with 1% bovine serum albumin). Unlabeled CHO-hFOLR1 cells were similarly washed and prepared. Labeled parental CHO and unlabeled CHO-hFOLR1 cells were combined at 1:1 ratio and seeded at 50 μL per well (200,000 cells per well) in 96 well polypropylene plates. Cells were mixed with 50 μL of test antibodies (i.e., anti-FOLR1 variants) serially diluted in FACS buffer and incubated on ice for 60 mins. Cells were washed with FACS buffer and incubated on ice for 60 mins with 100 μL FACS buffer containing 2.5 μg/mL R-Phycoerythrin-conjugated goat anti-Human IgG (Jackson ImmunoResearch Laboratories, West Grove, Pa.). Cells were washed twice with FACS buffer, fixed in 2% paraformaldehyde in PBS (Santa Cruz Biotechnology; Dallas, Tex.) for 10 mins on ice in the dark, and analyzed using the BD LSR II Flow Cytometer (BD Biosciences; San Jose, Calif.). Data were analyzed using FlowJo® software (FlowJo, LLC; Ashland, Oreg.) to determine mean fluorescence intensities. Binding constants were calculated using the statistical software, GraphPad Prism (GraphPad Software; La Jolla, Calif.) using the nonlinear regression equation, one site-specific binding with Hill slope. Secondary antibody alone was used as a control, in addition to measuring non-specific antibody binding to CHO parental cells.

[3] = biological target: T3, Murine folate receptor alpha (mouse, UniProt P35846 25-232); test: FACS, CHO-mFOLR1 cells
T3 construct: Stably expressed on CHO cells (CHO-mFOLR1); also called mouse FOLR1; CHO-mFOLR1
T3 sequence (P35846 25-232 limits assumed): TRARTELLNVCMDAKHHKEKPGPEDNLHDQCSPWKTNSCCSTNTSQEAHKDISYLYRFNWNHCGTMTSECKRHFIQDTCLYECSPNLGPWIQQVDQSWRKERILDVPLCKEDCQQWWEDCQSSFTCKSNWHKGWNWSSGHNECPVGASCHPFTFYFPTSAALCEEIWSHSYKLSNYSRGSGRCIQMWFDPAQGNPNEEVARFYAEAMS

[4] = biological target: FOLR1 on FOLR1-positive Igrov1 cells (UniProt P15328 25-234, limits assumed); test: cell-based or functional assay
FOLR1 on FOLR1-positive Igrov1 cells, sequence (P15328 25-234 limits assumed): as the sequence (P15328 25-234 limits assumed) above

T1 sequence (P15328 other isoform, or with tags, fused parts or gaps limits assumed): as the sequence (P15328 25-234 limits assumed) above, with I2T, W4R, R37K, Q117R, A146P, H171Y counted along it

Binder	Bmax [1] [MFI]	Bmax [2] [MFI]	Bmax [3] [MFI]	Igrov 2° Antibody Cell Killing, Nb-SC239: EC50 [4] [nM]	Igrov 2° Antibody Cell Killing, Nb-SC239: span (%) [4] [%]
SRP2060-E10 (antibody, V domains shown) VH: EVQLLESGGGLVQPGGSLRLSCAFSGFSLSTFGMGVGWVRQAPGKGLEWVSHIWWDDDKYYHPALKGRFTISKDNSKNTVYLQMNSLRAEDTAVYYCGRNHFPHYYGSSHWYFNVWGQGTTVTVSS VL: EIVMTQSPATLSLSPGERATLSCKASQDINSYLSWYQQKPGQAPRLLIYRANRLVDGIPARFSGSGSGTDYTLTISSLEPEDFAVYYCLQYDEFPYTFGGGTKVEIK				0.061	68
SRP2060-B01 (antibody, V domains shown) VH: EVQLLESGGGLVQPGGSLRLSCALSGFSLSTFGMGVGWVRQATGKGLEWVSHIWWDDDKYYHPALKGRFTISKDNSKNTVHLQMNSLRAEDTAVYYCGRNHFPHYYGSSHWYFNVWGQGTTVTVSS VL: DIQMTQSPSTLSASVGDRVTITCKASQDINSYLSWYQQKPGKAPKLLIYRANRLVDGVPSRFSGSGSGTEFTLTISSLQPDDFATYYCLQYDEFPYTFGGGTKVEIK				0.045	76
SRP2060-E05 (antibody, V domains shown) VH: EVQLLESGGGLVQPGGSLRLSCAFSGFSLSTFGMGVGWVRQAPGKGLEWVSHIWWDDDKYYHPALKGRFTVSKDNSKNTVYLQMNSLRAEDTAVYYCGRNHFPHYYGSSHWYFNVWGQGTTVTVSS VL: EIVMTQSPATLSLSPGERATLSCKASQDINSYLSWYQQKPGQAPRLLIYRANRLVDGIPARFSGSGSGTDYTLTISSLEPEDFAVYYCLQYDEFPYTFGGGTKVEIK				0.22	71
SRP2060-A06 (antibody, V domains shown) VH: EVQLLESGGGLVQPGGSLRLSCAFSGFSLSTFGMGVGWVRQAPGKGLEWVGHIWWDDDKYYYPALKGRFTISKDNSKNTVYLQMNSLRAEDTAVYYCGRNHFPHYYGSSHWYFDVWGQGTTVTVSS VL: DIQMTQSPSTLSASVGDRVTITCKASQDINSYLSWYQQKPGKAPKLLIYRANRLVDGVPSRFSGSGSGTEFTLTISSLQPDDFATYYCLQYDEFPYTFGGGTKVEIK				0.013	66

Second part, led by results:

Bmax [1] [MFI]	Bmax [2] [MFI]	Bmax [3] [MFI]	Binder	Igrov 2° Antibody Cell Killing, Nb-SC239: EC50 [4] [nM]	Igrov 2° Antibody Cell Killing, Nb-SC239: span (%) [4] [%]
13700	24900	1980	SRP1848-G07 (antibody, V domains shown, VH/VL only; Fc-bearing IgG format with trastuzumab LC, HIS/FLAG-tagged, cell-free expressed; constant regions not tied; also called Antibody 51) VH: EVQLVESGGGLVQPGGSLRLSCAASGFNIHSTDIHWVRQAPGKGLEWVAYITPAGGATWYADSVKGRFTISADTSKNTAYLQMNSLRAEDTAVYYCARYPFWFAGYMDYWGQGTLVTVSS VL: not shown		
22600	25900	16500	SRP1848-A01 (antibody, V domains shown, VH/VL only; Fc-bearing IgG format with trastuzumab LC, HIS/FLAG-tagged, cell-free expressed; constant regions not tied; also called Antibody 1) VH: EVQLVESGGGLVQPGGSLRLSCAASGFNITRYSIHWVRQAPGKGLEWVAGILPESGGTSYADSVKGRFTISADTSKNTAYLQMNSLRAEDTAVYYCARHIYPWDWFSNYVLDYWGQGTLVTVSS VL: not shown		
19200	26400	2220	SRP1848-G03 (antibody, V domains shown, VH/VL only; Fc-bearing IgG format with trastuzumab LC, HIS/FLAG-tagged, cell-free expressed; constant regions not tied; also called Antibody 48) VH: EVQLVESGGGLVQPGGSLRLSCAASGFNISTYYIHWVRQAPGKGLEWVGGITPSDGFTDYADSVKGRSTISADTSKNTAYLQMNSLRAEDTAVYYCARGSWSWPSGHGYFLDYWGQGTLVTVSS VL: not shown		
17400	26700	5940	SRP1848-E03 (antibody, V domains shown, VH/VL only; Fc-bearing IgG format with trastuzumab LC, HIS/FLAG-tagged, cell-free expressed; constant regions not tied; also called Antibody 33) VH: EVQLVESGGGLAQPGGSLRLSCAASGFNIGNYYIHWVRQAPGKGLEWVGGITPRDGFTDYADSVKGRFTISADTSKNTAYLQVNSLRAEDTAVYYCARGSWSWPAGHSYYLDYWGQGTLVTVSS VL: not shown		
17200	27000	3950	SRP1848-H01 (antibody, V domains shown, VH/VL only; Fc-bearing IgG format with trastuzumab LC, HIS/FLAG-tagged, cell-free expressed; constant regions not tied; also called Antibody 55) VH: EVQLVESGGGLVQPGGSLRLSCAASGFNIRTQSIHWVRQAPGKGLEWIGDIFPIDGITDYADSVKGRFTISADTSKNTAYLQMNSLRAEDTAVYYCARGSWSWPSGMDYYLDYWGQGTLVTVSS VL: not shown		
